Laboratory results reported in the nanobody polyreactivity screen of Harvey et al. (2022).

Assay: yeast display, Sf9 membrane polyspecificity reagent, FACS + sequencing; frameworks hold sequencing errors
Procedure, shortened: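 Polyreactivity labels are assigned by the sorting gate from which each nanobody was recovered. The gates were low and high (top ~1%), set on anti-HA fluorescence for expression and streptavidin fluorescence for reagent binding. Before sorting, galactose-induced (36–48 hours) yeast display cells were stained for 1 hour at 4 °C with 10% biotinylated, detergent-solubilized Sf9 membrane reagent.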

| Sequence | polyreactivity (PSR sort gate) |
| --- | --- |
| QVQLVESGGGLVQAGGSLRLSCAASGFIFTGYAMGWYRQAPGTEREFVAAISYSGGSTYADSVKGRFTISRDNAKNTVYLQMNSLKPEDTAVYYCNARQGLWRYTAENDYWGQGTHVTVSS | low polyreactivity |
| QVQLVESGGGLVQEGGSLRLSCADSGFTSCDNDMGWYRQAPGKERELVAAISRGGSTNYADSVKGRFTISRDNAKNTFYLQMNSLKPEDSEVYYCATAAVTPVWYDYWGKGTQVTVSS | low polyreactivity |
| QVQLVESGGGLVQAGGSLRLSCAASVSTFSVYAMGWYRQAPGKERELVADISENGGSTYYADSVKGLFTISRDNAKNTVYLQMNSLKPEHTAVYYCAALYHSTSHTYSYWGQGTQVTVSS | low polyreactivity |
| QVQLVESGGGLVQAGGSLRLSCAASGRTFYANDMGWYRQAPGKERELVAAISSSVTSTHYADSVKGRFTISRDNAKNTVYLQMNSLKPEDTAVYYCNKDPIREVPPPGPSEMDYWGQGTQVTVSS | low polyreactivity |
| QVQLVESGGGLVQAGGSLRLSCDASGRTFYANDMGWYRQAPGKERELVAAISSSVTSTHYADSVKGRFTISRDNAKNTVYLQMNSLKPEDTAVYYCNKDPIREVQPPGPSEMDYWGQGTQVTVSS | low polyreactivity |
| QVQLVESGGGLVQAGGSLRLSCAASGSIFYRNVMGWYRQAPGKERELVAAISWSGGSTYYADSVKGRFTISRDKSKNTVYLQMNSLKPEDTAVYYCAADIPKTCYPYAFEYWGQGTQVTVSS | low polyreactivity |
| QVQLVESGGGLVQAGGSLRLICAASGSTFVFYAMGWYRQAPGKERELYATISTGGSTYADSVKGRFTISRDNSKNTVYLQMNSLIPEDTAVYYCNARLRSFTLSDAEYEYWGQGTQETVSS | low polyreactivity |
| QVQLVESGGGLVQAGGSLRLSCAASGSIFEYYAMGWYRQAPGKERELVASITSGGRTYYADSVKGRFTISRDNAKNTVYLQMNSLKPEDTAVYYCAAAYYNWGYTFYWGQGTQVTVSS | high polyreactivity |
| QVQLVESGGGLVQAGGSLRLSCADSARTFYTNAKGWYRQAPGKERELVAAITGSDGNTYYADSVKGRFTISRDNAKNTVYLQMISLKPEDTAVYYGYDYWVQGTQVTVSS | low polyreactivity |
| QVHLVQSGGGLVQAGGSLRLSCAASGSIYVAYEMGWYRQAPGKERELVAAINFDGTSTYYADSVKGRFTISRDNAKNTVYLQMNSLKPEDTAVYYCNKRVSPTYKGQYDYWGQGTQVTVSS | low polyreactivity |
| QVQLVESGGGLVQAGGSLRLSCAASGFTFYSYAMGWYRQAPGKERELVAAISWSGTRTYYADSVKGRFTISRDIAKNTVYLQMNSLKPEDTAVYYCAARGYRYGYGYWGQGTQVTVSS | high polyreactivity |
| QVQLVESGGGLVQAGGSLRLSCAASGIIFIYYTMGWYRQAPGTDRELVAVITTSGDGTYYADSVKGRFTISRDNAKNTGYLQMNSLKPEDTSVYYCAASYSTWVSTRNDYWGQGTQVTVSS | low polyreactivity |
| QVQLVESGGGLVQAGGSLRLSCPASGSNLYPYAMGSSTQPPATEREMVATISYSVVSTYYAESVKGRFTISRDNAKNTVYLQMNSLKPEDTAVYYCADKSRSSKYVYWGQGTQVSVSS | high polyreactivity |
| QVQLVESGGGLVQAGGSLRLSCAASGRTFGNYAMGWYRQAPGKERELVADITRRGGSTSYADSVKGRFTISRDNAKNTVYLQMNSLKPEDTAVYYCNADSYLPAIRYDYWGQGTQVTVSS | low polyreactivity |
| QVQLVESGGGLVQAGGSLRLSCAASGRTFEVYAMGRYRQPPGKERELVATITYSGGITYYADSVKGRFTISRDNAKNTVYLQMNSLKPEYTAVYYPICVGGDYDYWGQGTQVTVSS | low polyreactivity |
| QDQLVESGGGLVQAGGSLRLSCAASGRTFYLYAMGWYSQAPGKEREFVAVINSSGGSTYYADSVKGRFTISRDNAKNTVYLQMNSLKPEDTAVYYCAAYPIPRGRDYWGPGTQVTVSS | low polyreactivity |

| Sequence | polyreactivity (PSR sort gate) |
| --- | --- |
| QVQLVESGGGLVQAGGSLRLSCAASGSILQRNAMGWYRQAPGKERELVAAISWSGDNTYYADSVKGRFTISRDNAKNTVYLQMNSLKPEDTAVYYCATDADIYFQEYDYWGQGTQVTVSS | low polyreactivity |
| QVQLVESGGGLVQAGGSLRLSCAASGFIFVYNAMGWYRQAPGKEREFVAGISRSGGNTYYADSVKGRFTISRDNAKNTVYLQMNSLKPEDTAVYYCAVVNRRFGFPNVALRSNYGDYWGQGTQVTVSS | low polyreactivity |
| QVQLVESGGGLVQAGGSLRLSCAASGSTFNIYAMGWYRQAPGKERELVAAITWSTGRTYYADSVKGRFTISRDTAKNTVYLQMNSLKPEDTAVYYCAARSKIRAFGYWGLGTQVTVSS | high polyreactivity |
| QVQLVESGGGLVQAGGSLRLSCAASGYTFYRYTMGWYRQAPGKEREVVAAINSGGSTNYADSLKGRFTISRDNAKNTVYLQMNSLKPEDTAVYYCARRYQTWPRWYDYWGQGTQVTVSS | high polyreactivity |
| QVQLVESGGGLVQAGGSLRLSCAASGRIFKDNAMGWYRQAPGKERELVATIDSGGDTNYADSVKGRFTISRDNAKNTVYLQMNSLKPEDTAVYYCNTEGFLSAVYAFGYWGQGTQVTVSS | low polyreactivity |
| QVQLVESGGGLVQAGGSLRLSCAASGSTFGPYAMGWYRPAPGKEMELVATITRNGGSTYYADSVKGRFTISRDNAKNTVYLQMNSLKPEDTAVYYCNAEGRWSSFTQRMDYWGQGTQVTVSS | low polyreactivity |
| QVQLVESGGGLVQAGGSLRLSCAASEFTFLLYAMGWYRQAPGKERELVAAISRTGGSTYYADSVKGRFTISRDNAKKTVYLQMNSLNPEDTAVYYCNAAISRAWVSYYGSSSRYDYWGQGTQVTVSS | low polyreactivity |
| QVQLVESGGGLVHAGGSLRLSCAASGRIFRWYAMGWYRQAPGKERELVAAISSRGGSTYYADSVKGRFTISRDNAKNTVYLQMNSLKPEDTAVYYCAADTSGWQPRYDYWGQGTQVTVSS | high polyreactivity |
| QVQLVESGGGLVQAGGSLRLSCAPSGSTFGWYAMGWYRQAPGKESELFAAITGDSASTYYADSVKGRFTISRDNAKNTVYLQMNSLKQEDTAVYYCAATKFSDFAYEAVIGYGYWGQGTQVTVSS | low polyreactivity |
| QVQLEESGGGLVQAGGSLRLSCAASGPIFVGYAMGWSRQAPGKEREFLAAISRDGDNTFYADSVKGRFTISRDYAKNTVYLQMYSLKPEDTAVYYCAVDYWVWYGCAYAYDYYWGQGTQVSVSS | low polyreactivity |
| QVQLQESGRGLVQAGGSLRLSCAASGSISILQSMGWYRQAPGKERELVAGINWGATTYYADSVKGRLTTSRDYAKNTVYLQMNSLKPEDTAVYYCAVPTYYTYPLLYWGQGTQVTVSS | low polyreactivity |
| QVHLVESGGGLVQAGGSLRLSCAASGITFAWYAMGWYRQAPGKERELVAAISDRGGSTYYADSVKGRFTMSRDNAKNTVDLQMNSLKPEETAVYYCAADYRYYWRSGASSRMDYWGQGTQVTVSS | high polyreactivity |
| QVQLVESGGGIVQAGGSLRLSCAASGRTFTVYAMGWYRQARGTARELVAAINYSVGSTYYADSVKGRFTISRDNAKNTVYLQMNSLNPEDTAVYYCAADLYHFSYSNSYIRYDYWGQGTQVTVSS | low polyreactivity |
| QVQLVESGGGLVQAGGSLRLSCAASGSIFYGYAMGWYRQSPGKERELVAAISSTGVRSYYADSVKGRFTISRDNAKNTVYLQMNSLKPEDSEVYYCAARRYGPGRYQEDYWGQGSQVTVSS | high polyreactivity |
| QVQLVVSGGGLVQAGGSLRLSCAASGSIFYFNAMGWYRQAPGKERELVASITSGGSTNYADSVKGRFTISRDNAKTTVYLQLISLKPEDTAVYYFNAYTWGVGSSLDDVGYWGQGTQVTGSS | low polyreactivity |
